The results in this text go back to patent US20260242450A1.

Where a chain is given by its changes, count along the chain named.

Test [1] concerns the target HIV-1 envelope proteins of the panel of 12 global reference pseudovirus strains of HIV-1 ("global panel").
Test [2] concerns the target HIV-1 envelope proteins of the panel of 8 pseudoviruses insensitive against neutralization by CD4bs bNAbs (constituents of the 119 multiclade panel).
The target in test [3] is HIV-1 envelope proteins of the multiclade panel of 119 pseudoviruses.
The target in test [4] is HIV-1 envelope proteins of the panel of 100 clade C HIV-1 pseudoviruses (Subtype C panel).
Test [5] concerns the target HIV-1 envelope proteins of the panel of 7 pseudoviruses selected from the "Resistant panel to CD4bs bNAbs".
The target of test [6] is HIV-1 envelope proteins of the panel of 9 pseudoviruses resistant against CD4bs bNAbs (constituents of the 119 multiclade and Subtype C panels).
Test [7] deals with HIV-1 envelope proteins of the panel of 185 pseudoviruses generated from virus sequences obtained from the Antibody Mediated Prevention (AMP) trials.

B1: 05_C07 (antibody, V domains shown)
VH: HVQLWQSGAEVKKPGASVKISCSAWGFGTRSGYTFRDYRIHWVRQVPRQGFEWMGHLHPAYGAVNYARQFQGRIIMTREVSFDGSGGTVYMELRSLRSDDTATYYCVTHKLYDGEDASDLTWRLDPWGQGTRVTVSS
VL: GVSLTQSPASLCASVGDRVTFTCQASQDITNAINWYQLRPGKTPKLMIHDGSTLRRGVPSRFAGSGFGTRFTFTIDNLQPEDLATYFCQHYEFFPPAGTQVDFN
In the case of B1, in test [1], the geometric mean IC50, TZM-bl cell pseudovirus neutralization assay was less than 0.05 µg/mL and the neutralizing activity, TZM-bl cell pseudovirus neutralization assay (breadth) was 100%.

B2: 01_B01 (antibody, V domains shown)
VH: HVQLWQSGAEVKKPGASVKISCAAWGFGTTSGYSFRDYRIHWVRQVPGQGFQWMGHIQPRYGAVNYAHQFQGRITMTREVSFDASGGTAYMELRSLRSDDTATYYCVTHKLYDGEDASDLAWRLDPWGQGTRVTVSS
VL: B1 VL with S3H, C12S, S65G, R70K, D102E, F103L
Regarding B2, in test [1], the geometric mean IC50, TZM-bl cell pseudovirus neutralization assay is less than 0.05 µg/mL and the neutralizing activity, TZM-bl cell pseudovirus neutralization assay (breadth) turned out to be 100%.

B3: 01_D03 (antibody, V domains shown)
VH: B2 VH with A23S, I40V, Q45H, V46I, P47A, I57M, H68R, T103V, A121T, T134I
VL: B1 VL with S3H, C12S, R70K, A97V, D102E, F103L
In test [1], B3 showed a geometric mean IC50, TZM-bl cell pseudovirus neutralization assay of 0.021 µg/mL and a neutralizing activity, TZM-bl cell pseudovirus neutralization assay (breadth) of 100%. In test [2], this molecule yielded a neutralizing activity, TZM-bl cell pseudovirus neutralization assay (breadth) of 88%.

B4: 04_A06 (antibody, V domains shown)
VH: SVRLDQSGTAVKKPGASVRVSCRAPDSFTVYRPRLSAYFIGEFNIHWLRQAPGQGLEWLGFVNIFRGAVKYSSRFQGRITITRDTSSETSYLDLGALKADDTATYYCAWDKNVDDNPWRLDSWGQGTLVIVSS
VL: YIQVTQSPSSLSASIGDTITVACEVSQDVGWAVNWYHQRPGRPPYNLIYTAHNLAPGVASRFRGSRVGTYFTLTINNLLPEDVGTYYCQVFDSFAPGGTRVDLR
As to B4, the geometric mean IC50, TZM-bl cell pseudovirus neutralization assay in test [1] is 0.038 µg/mL; in test [3], 0.036 µg/mL; in test [4], 0.057 µg/mL. Besides, the neutralizing activity, TZM-bl cell pseudovirus neutralization assay (breadth) was 100% in test [1]; 99% in test [3]; 99% in test [4]; 86% in test [5]; 100% in test [6]; less than 98% in test [7]. Also, the IC50, TZM-bl cell pseudovirus neutralization assay in test [5] turned out to be 0.153 µg/mL. Also, the GeoMean IC50, TZM-bl cell pseudovirus neutralization assay in test [7] turned out to be 0.084 µg/mL.

B5: 04_B09 (antibody, V domains shown)
VH: B4 VH with R74A, Q76R, S87L, A99P, Y106F, I130V
VL: B4 VL with I15V, E24Q, A51T, H52S, S65T, G68A, D92E
Turning to B5, in test [1], the geometric mean IC50, TZM-bl cell pseudovirus neutralization assay was less than 0.05 µg/mL and the neutralizing activity, TZM-bl cell pseudovirus neutralization assay (breadth) stood at 100%.
